Results as given in patent CN111909265A (INST MILITARY MEDICINE ACADEMY MILITARY SCIENCES PLA, dated 2020).

Columns and labels:
[1] = target: T1, 破伤风毒素重链C端结构域 (TeNT-HC, GenBank:AF154828) (破伤风梭菌 (C.tetani), UniProt P04958 865-1315); test: ELISA, coated TeNT-HC 1 μg/mL, T9-6 titrated 1:3 from 3.3 μg/mL
T1 sequence: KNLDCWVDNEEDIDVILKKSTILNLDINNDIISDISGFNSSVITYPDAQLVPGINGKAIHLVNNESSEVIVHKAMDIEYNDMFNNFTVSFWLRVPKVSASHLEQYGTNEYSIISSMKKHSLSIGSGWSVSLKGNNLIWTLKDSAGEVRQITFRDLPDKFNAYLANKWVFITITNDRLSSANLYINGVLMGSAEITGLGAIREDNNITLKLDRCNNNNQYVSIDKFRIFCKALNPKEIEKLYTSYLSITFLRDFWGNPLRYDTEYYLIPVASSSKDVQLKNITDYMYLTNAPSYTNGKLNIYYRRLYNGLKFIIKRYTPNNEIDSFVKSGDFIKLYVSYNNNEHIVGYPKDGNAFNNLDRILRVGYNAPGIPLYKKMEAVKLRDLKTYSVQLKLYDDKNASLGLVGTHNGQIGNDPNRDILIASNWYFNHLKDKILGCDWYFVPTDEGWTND

破伤风类毒素 (TT) [2] = target: T2, 破伤风类毒素 (TT) (破伤风梭菌 (C.tetani), UniProt P04958 2-1315)
T2 sequence (P04958 2-457 limits assumed): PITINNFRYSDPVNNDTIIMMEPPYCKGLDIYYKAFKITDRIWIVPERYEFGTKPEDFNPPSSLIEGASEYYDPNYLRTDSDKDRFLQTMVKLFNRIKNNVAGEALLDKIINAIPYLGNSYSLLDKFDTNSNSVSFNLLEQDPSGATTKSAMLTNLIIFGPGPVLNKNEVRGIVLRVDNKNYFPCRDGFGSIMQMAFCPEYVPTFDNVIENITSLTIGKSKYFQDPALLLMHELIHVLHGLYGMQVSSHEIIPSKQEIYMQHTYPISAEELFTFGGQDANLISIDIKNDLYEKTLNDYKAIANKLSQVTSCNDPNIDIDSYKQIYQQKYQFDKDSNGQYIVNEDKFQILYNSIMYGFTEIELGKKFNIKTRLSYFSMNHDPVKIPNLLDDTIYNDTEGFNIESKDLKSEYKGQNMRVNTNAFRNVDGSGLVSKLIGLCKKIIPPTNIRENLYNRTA

破伤风类毒素 (TT) [3] = target: T2, 破伤风类毒素 (TT); test: ELISA, coated TT 1 μg/mL, T9-6 titrated 1:3 from 3.3 μg/mL

B1: T9-6 人源抗破伤风毒素单克隆抗体 (antibody, V domains shown)
VH: QLVQSGGGLIQPGGSLRLSCAASGSGFSVSSNYMTWVRQAPGKGLEWVAVIYRNGSTNYADSVRGRFTISRDNSKNTVFVQMNRLRVEDTAVYYCARDFVVVVSTGPEVSYYSYGMDVWGQGTMVTGSS
VL: DIVMTQSPSSLSASVGDRVTITCRASQGISDYLSWYQQKPGKAPKRLIYGTSSLDSGVPSRFSGSGSGTEFTLTISSLQPEDVATYYCLQHHGFPRTFGQGTKVDIKR
- EC50 [1]: 3.45 ng/mL
- Kd (破伤风类毒素 (TT) [2]): 0.397 nM
- EC50 (破伤风类毒素 (TT) [3]): 6.18 ng/mL
